Data published in US20240148884A1.

What was measured:
Test in all cases: cell-based or functional assay
dog GIPR (dog) = molecular target: dog GIPR (dog)
human GIPR (human) = molecular target: T1, human GIPR (human) (UniProt P48546)
T1 sequence (looked up): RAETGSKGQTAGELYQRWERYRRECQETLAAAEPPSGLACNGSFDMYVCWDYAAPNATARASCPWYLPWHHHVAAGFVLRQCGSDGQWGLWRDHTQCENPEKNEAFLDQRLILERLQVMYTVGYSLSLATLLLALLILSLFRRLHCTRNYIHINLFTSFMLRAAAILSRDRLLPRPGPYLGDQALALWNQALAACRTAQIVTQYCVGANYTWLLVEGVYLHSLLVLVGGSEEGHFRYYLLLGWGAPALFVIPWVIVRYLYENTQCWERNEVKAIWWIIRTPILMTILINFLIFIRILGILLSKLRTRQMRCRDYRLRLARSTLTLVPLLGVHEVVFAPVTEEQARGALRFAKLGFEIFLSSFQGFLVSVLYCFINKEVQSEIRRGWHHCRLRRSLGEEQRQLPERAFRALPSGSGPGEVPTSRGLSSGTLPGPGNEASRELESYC

mouse GLP1R (mouse) = mouse GLP1R (mouse) (UniProt O35659)
mouse GLP1R (mouse), sequence (O35659 22-463 limits assumed): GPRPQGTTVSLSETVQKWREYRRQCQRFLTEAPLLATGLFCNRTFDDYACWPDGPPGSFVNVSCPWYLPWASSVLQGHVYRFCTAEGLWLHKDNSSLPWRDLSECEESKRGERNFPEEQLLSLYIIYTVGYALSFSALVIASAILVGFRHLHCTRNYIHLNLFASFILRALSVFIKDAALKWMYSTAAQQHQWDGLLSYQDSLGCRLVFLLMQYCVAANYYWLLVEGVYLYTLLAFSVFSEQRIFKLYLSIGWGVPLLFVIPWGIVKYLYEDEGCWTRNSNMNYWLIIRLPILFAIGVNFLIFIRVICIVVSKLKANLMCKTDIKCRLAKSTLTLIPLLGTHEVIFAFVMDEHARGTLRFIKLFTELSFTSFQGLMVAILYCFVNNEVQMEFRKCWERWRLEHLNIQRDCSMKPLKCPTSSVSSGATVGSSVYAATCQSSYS

[1] = molecular target: cynomolgous monkey GIPR (cynomolgous monkey)
dog GLP1R (dog) = molecular target: dog GLP1R (dog)
dog GLP1R (dog), sequence (chain, as listed by the source): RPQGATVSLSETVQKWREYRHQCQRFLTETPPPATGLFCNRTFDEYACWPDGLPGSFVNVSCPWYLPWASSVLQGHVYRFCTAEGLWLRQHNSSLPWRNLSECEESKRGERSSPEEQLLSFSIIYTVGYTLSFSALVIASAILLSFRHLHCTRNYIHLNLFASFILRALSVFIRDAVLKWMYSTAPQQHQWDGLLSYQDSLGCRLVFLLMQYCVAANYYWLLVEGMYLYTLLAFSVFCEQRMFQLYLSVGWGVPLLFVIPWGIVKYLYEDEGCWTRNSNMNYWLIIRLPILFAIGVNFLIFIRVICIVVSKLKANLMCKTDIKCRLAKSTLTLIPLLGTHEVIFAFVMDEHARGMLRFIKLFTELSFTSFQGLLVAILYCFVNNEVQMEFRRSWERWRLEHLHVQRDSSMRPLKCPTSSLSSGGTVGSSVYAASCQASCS

[2] = molecular target: cynomolgous monkey GLP1R (cynomolgous monkey)
mouse GIPR (mouse) = molecular target: T2, mouse GIPR (mouse) (UniProt Q0P543)
T2 sequence (looked up): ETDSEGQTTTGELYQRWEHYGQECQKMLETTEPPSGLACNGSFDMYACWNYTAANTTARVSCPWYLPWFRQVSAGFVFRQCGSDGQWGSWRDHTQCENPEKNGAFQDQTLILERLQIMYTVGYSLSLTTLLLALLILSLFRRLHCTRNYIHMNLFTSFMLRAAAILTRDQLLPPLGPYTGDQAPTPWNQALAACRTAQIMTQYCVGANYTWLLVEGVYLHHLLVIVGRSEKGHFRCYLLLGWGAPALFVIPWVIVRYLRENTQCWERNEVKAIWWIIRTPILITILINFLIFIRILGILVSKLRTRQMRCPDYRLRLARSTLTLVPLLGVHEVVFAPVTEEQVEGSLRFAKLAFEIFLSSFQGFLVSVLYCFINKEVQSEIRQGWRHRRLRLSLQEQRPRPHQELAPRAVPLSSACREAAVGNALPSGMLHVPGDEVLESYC

| In Vitro Potency GLP1R EC50 [nM], Dog (dog GLP1R (dog)) [nM] | In Vitro Potency GLP1R EC50 [nM], Cyno [2] [nM] | In Vitro Potency GIPR EC50 [nM], Mouse (mouse GIPR (mouse)) [nM] | In Vitro Potency GIPR EC50 [nM], 10% FBS (human GIPR (human)) [nM] | Substance | In Vitro Potency GIPR EC50 [nM], Dog (dog GIPR (dog)) [nM] | In Vitro Potency GIPR EC50 [nM], No Serum (human GIPR (human)) [nM] | In Vitro Potency GLP1R EC50 [nM], Mouse (mouse GLP1R (mouse)) [nM] | In Vitro Potency GIPR EC50 [nM], Cyno [1] [nM] |
| --- | --- | --- | --- | --- | --- | --- | --- | --- |
| – | – | – | – | Tirzepatide (peptide) | 0.1 | 0.006 | 0.16 | 0.08 |
| 0.67 | 0.13 | – | – | Semaglutide (peptide) | – | – | 0.1 | – |
| – | – | 0.34 | 0.01 | wild-type human GIP (hGIP) (from UniProt P09681 52-93) (ligand) | 0.7 | 0.05 | – | 0.69 |
